Where a chain is given by its changes, count along the chain named. Blank lines part the entries; values can stand above or below the binder they belong to.
Tests used:
TrkC (NIH-TrkC cells) [1] = assay: flow cytometry competition on NIH-TrkC cells; 20 nM Biotin-NT3 tracer, 200 nM unlabeled competitor; value is the Biotin-NT3 binding remaining
TrkC (NIH-TrkC cells) [2] = assay: flow cytometry competition on NIH-TrkC cells; 20 nM Biotin-NT3 tracer, 200 nM unlabeled competitor; value is the Biotin-NT3 signal remaining
TrkA (NIH-TrkA cells) [3] = assay: flow cytometry competition on NIH-TrkA cells; 20 nM Biotin-NT3 tracer, 3-fold excess unlabeled competitor; value is the Biotin-NT3 signal remaining
TrkC (NIH-TrkC cells) [4] = assay: cell-based or functional assay
TrkA (NIH-TrkA cells) [5] = assay: flow cytometry competition on NIH-TrkA cells; 20 nM Biotin-NT3 tracer, 3-fold excess unlabeled competitor; value is the Biotin-NT3 binding remaining
TrkC (NIH-TrkC cells) [6] = assay: flow cytometry (fluorescent avidin) on NIH-TrkC cells; 20 nM Biotin-NT3, no competitor
TrkA (NIH-TrkA cells) [7] = assay: flow cytometry (fluorescent avidin) on NIH-TrkA cells; 20 nM Biotin-NT3, no competitor
p75 (NIH-p75 cells) [8] = assay: flow cytometry (fluorescent avidin) on NIH-p75 cells; 20 nM Biotin-NT3, no competitor
p75 (NIH-p75 cells) [9] = assay: flow cytometry competition on NIH-p75 cells; 20 nM Biotin-NT3 tracer, 200 nM unlabeled competitor; value is the Biotin-NT3 signal remaining
p75 (NIH-p75 cells) [10] = assay: flow cytometry competition on NIH-p75 cells; 20 nM Biotin-NT3 tracer, 200 nM unlabeled competitor; value is the Biotin-NT3 binding remaining

- % of maximal binding to TrkC (TrkC (NIH-TrkC cells) [1]): 18%
- NIH-TrkC MCF (TrkC (NIH-TrkC cells) [2]): 25
- NIH-TrkA MCF (TrkA (NIH-TrkA cells) [3]): 20
- % of maximal binding to TrkA (TrkA (NIH-TrkA cells) [5]): 36%
B1: Wild type NT-3 (Neurotrophin 3, mature form) (ligand)
chain: YAEHKSHRGEYSVCDSESLWVTDKSSAIDIRGHQVTVLGEIKTGNSPVKQYFYETRCKEARPVKNGCRGIDDKHWNSQCKTSQTYVRALTSENNKLVGWRWIRIDTSCVCALSRKIGRT
- % survival at 0.1 nM, TrkC-expressing cells in serum free media (TrkC (NIH-TrkC cells) [4]): 34%

- NIH-TrkC MCF (TrkC (NIH-TrkC cells) [6]): 93
- NIH-TrkA MCF (TrkA (NIH-TrkA cells) [7]): 38
- NIH-p75 MCF (p75 (NIH-p75 cells) [8]): 76
B2: Biotin-NT-3 (wild type NT-3 covalently linked to biotin) (ligand)
chain: B1 chain
modifications: biotin, site not given

- NIH-p75 MCF (p75 (NIH-p75 cells) [9]): 69
- % of maximal binding to TrkC (TrkC (NIH-TrkC cells) [1]): 13%
- % of maximal binding to p75 (p75 (NIH-p75 cells) [10]): 89%
- NIH-TrkA MCF (TrkA (NIH-TrkA cells) [3]): 16
B3: NT-3 mutant (SEQ ID NO: 23) (ligand)
chain: B1 chain with D15A, R114A, K115A

Source: patent publication US20190374606A1
